From patent US20240279341A1 (Alector, published 2024)

T1: human MerTK on M2c-differentiated human macrophages (human, UniProt Q12866 21-999)
T1 sequence: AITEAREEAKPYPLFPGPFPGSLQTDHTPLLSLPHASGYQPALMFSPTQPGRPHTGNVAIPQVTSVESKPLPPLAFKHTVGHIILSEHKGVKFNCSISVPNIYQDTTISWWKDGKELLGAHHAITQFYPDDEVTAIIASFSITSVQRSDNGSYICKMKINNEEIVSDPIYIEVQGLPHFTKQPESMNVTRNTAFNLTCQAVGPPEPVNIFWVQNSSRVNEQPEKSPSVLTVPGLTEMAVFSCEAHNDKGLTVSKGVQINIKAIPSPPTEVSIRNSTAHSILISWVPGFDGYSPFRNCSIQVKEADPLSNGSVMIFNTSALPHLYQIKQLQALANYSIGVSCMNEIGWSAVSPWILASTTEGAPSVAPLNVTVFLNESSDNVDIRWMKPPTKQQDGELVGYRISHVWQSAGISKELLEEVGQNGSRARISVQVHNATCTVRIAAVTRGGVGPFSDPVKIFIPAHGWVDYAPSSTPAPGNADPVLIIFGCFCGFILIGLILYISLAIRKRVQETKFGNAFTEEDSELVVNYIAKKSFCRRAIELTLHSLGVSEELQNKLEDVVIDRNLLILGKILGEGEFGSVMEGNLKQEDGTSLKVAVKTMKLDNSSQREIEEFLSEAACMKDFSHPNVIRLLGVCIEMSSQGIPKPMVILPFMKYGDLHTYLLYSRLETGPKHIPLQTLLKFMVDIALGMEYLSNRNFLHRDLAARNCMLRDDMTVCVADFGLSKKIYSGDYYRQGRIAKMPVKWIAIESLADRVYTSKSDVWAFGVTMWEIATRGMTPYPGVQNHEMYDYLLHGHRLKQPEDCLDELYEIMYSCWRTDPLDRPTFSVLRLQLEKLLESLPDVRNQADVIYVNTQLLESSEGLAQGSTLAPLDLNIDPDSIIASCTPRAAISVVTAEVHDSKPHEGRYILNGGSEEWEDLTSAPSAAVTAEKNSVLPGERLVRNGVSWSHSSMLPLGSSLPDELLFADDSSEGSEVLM

T2: human MerTK overexpressed on CHO cells (human, UniProt Q12866 21-999)
T2 construct: also called CHO-huMerTK OE; CHO-human MerTK OE cells
T2 sequence: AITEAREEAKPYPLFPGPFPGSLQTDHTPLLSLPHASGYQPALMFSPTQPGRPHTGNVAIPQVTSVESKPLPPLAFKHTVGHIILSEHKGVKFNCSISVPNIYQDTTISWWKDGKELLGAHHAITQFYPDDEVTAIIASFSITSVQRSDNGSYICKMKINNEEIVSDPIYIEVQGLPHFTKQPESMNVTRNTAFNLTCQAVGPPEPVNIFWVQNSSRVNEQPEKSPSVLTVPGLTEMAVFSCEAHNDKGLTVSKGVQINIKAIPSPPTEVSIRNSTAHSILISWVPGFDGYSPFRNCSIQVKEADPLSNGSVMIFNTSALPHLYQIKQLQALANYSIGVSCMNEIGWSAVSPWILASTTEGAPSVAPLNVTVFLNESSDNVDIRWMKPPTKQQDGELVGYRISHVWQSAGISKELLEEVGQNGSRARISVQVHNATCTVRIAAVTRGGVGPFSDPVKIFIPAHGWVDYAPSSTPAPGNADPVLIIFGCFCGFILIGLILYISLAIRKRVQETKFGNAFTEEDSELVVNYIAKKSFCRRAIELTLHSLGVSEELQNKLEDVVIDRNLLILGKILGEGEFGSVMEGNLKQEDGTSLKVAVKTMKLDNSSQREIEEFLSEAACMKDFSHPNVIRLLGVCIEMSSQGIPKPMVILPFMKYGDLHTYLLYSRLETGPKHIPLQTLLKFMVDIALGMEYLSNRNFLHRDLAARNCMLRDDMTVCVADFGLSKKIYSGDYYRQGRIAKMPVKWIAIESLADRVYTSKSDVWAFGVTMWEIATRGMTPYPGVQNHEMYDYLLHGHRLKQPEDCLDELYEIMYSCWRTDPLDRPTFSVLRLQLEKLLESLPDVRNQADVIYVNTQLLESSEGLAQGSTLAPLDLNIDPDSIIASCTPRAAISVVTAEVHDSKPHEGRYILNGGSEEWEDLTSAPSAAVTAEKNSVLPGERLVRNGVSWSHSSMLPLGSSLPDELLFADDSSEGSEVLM

T3: recombinant murine MerTK extracellular domain (mouse, UniProt Q60805 19-497)
T3 construct: also called moMerTK; mouse MerTK; not shown: PolyHis tag or TEVS/Thrombin/murine IgG2a Fc tag (a commercial human IgG1 Fc fusion is also mentioned); which form was t
T3 sequence: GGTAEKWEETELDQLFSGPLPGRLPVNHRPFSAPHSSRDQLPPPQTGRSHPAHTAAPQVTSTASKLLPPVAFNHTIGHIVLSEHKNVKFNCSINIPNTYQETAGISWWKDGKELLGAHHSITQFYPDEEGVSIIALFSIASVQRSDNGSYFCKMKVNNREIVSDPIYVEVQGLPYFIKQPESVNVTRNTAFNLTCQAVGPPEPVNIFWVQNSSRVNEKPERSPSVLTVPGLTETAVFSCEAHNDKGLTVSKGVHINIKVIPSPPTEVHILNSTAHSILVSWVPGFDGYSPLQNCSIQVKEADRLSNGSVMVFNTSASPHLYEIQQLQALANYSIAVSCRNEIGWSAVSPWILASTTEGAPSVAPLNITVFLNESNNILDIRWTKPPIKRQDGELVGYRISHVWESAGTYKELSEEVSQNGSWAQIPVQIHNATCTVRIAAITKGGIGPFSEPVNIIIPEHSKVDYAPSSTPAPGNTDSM


Key:
[1] = molecular target: T1, human MerTK on M2c-differentiated human …; experiment: cell-based or functional assay
[2] = molecular target: T1, human MerTK on M2c-differentiated human …; experiment: flow cytometry on M2c-differentiated human macrophages, Dylight650-conjugated antibody; average FACS Kd from Prism fit of MFI
Description: (§1) Human macrophages were differentiated from human monocytes for 7 days in the presence of human M-CSF, resulting in M2c-differentiated human macrophages. After 7 days, the differentiated human macrophages were harvested (by scraping), resuspended in PBS, and plated on 96-well plates for use. CHO cells overexpressing human MerTK (CHO-huMerTK OE), CHO cells overexpressing human PDL1 (CHO-huPDL1 OE), and M2c-differentiated human macrophages were stained with Dylight650-conjugated bispecific anti-MerTK:anti-PDL1 antibodies, or bivalent anti-MerTK antibodies for 30 min on ice. A range of antibody concentrations were used in these studies to obtain binding curves. All antibodies tested in these studies were IgG1 having Fc regions comprising LALAPS mutations. Cells were fixed and then acquired on a BD FACS Canto II cytometer. The mean fluorescence intensity (MFI) was calculated using FlowJo software and Kd value was calculated using Prism software.

[3] = molecular target: T2, human MerTK overexpressed on CHO cells; experiment: flow cytometry on CHO-huMerTK OE cells, Dylight650-conjugated antibody; average FACS Kd from Prism fit of MFI
Description: as §1

[4] = molecular target: T3, recombinant murine MerTK extracellular …; experiment: SPR (Carterra LSA), antibody immobilized, MerTK ECD as analyte; estimate, fits not ideal for a 1:1 model
Method: (§2) Binding kinetics of bispecific anti-MerTK:anti-PDL1 antibodies of the present disclosure to human, cyno, and murine MerTK were evaluated using a Carterra LSA instrument. […] A HC30 sensor chip (Carterra) was activated using the single channel flow cell with a 7-minute injection of a 1:1:1 mixture of 100 mM MES pH 5.5, 100 mM sulfo-NHS, 400 mM EDC (all reconstituted in MES pH 5.5; 100 μl of each mixed in vial immediately before running assay). After switching to the multi-channel array flow cell, the antibodies were injected over the activated chip in a 96-spot array for 15 minutes. A duplicate injection of the antibodies on a second block of the chip was spotted as before. The remaining unconjugated active groups on the chip were then blocked by injecting 1M Ethanolamine pH 8.5 (Carterra) for 7 minutes using the single channel flow cell.
(§3) After priming with running buffer (HBS-TE, Carterra) with 0.5 mg/ml BSA (Sigma), the immobilized anti-MerTK antibodies were tested for their ability to bind to several forms of recombinant MerTK extracellular domain, including that of human, cynomolgus, and mouse orthologs as described above. Estimates of affinity were generated by injecting each analyte over the entire antibody array using the single channel flow cell. […] Dissociation was followed for 300 seconds before regenerating after each injection with 2×30 seconds of 10 mM Glycine pH2.5. Three buffer blanks were run between each series (one species per series). After all concentrations of all three species of MerTK were injected, a duplicate set of injections was performed, so that each concentration for all three species was injected in widely spaced duplicates. Data were processed and analyzed using NextGenKIT high-throughput kinetics analysis software (Carterra).

[5] = molecular target: T3, recombinant murine MerTK extracellular …; experiment: SPR (Carterra LSA), antibody immobilized, MerTK ECD as analyte
Method: as §2, §3

| Average Efferocytosis blocking IC50 [1] [nM] | Kd [2] [nM] | Kd [3] [nM] | Kd [4] [nM] | binding result [5] | Binder |
| --- | --- | --- | --- | --- | --- |
| 4.45 | 9.96 | 4.97 | 40 | – | monovalent anti-MerTK antibody MTK-33.11 (antibody, V domains shown) VH: QVQLVQSGAEVKKPGASVKVSCKASGYTFTSYWMHWVRQAPGQGLEWIGVIDPSDNYINYNQKFQGRVTMTRDTSTSTVYMELSSLRSEDTAVYYCAREAWTRGYFDYWGQGTLVTVSS VL: DIQMTQSPSSLSASVGDRVTITCQASRSVRNTVAWYQQKPGKAPKLLIYYASNRYTGVPSRFSGSGSGTDFTFTISSLQPEDIATYYCQQDYRSPFTFGQGTKLEIK |
| 0.341 | 2 | 0.439 | 50 | – | bivalent anti-MerTK antibody MTK-33.11 (full IgG) (antibody, V domains shown) VH: QVQLVQSGAEVKKPGASVKVSCKASGYTFTSYWMHWVRQAPGQGLEWIGVIDPSDNYINYNQKFQGRVTMTRDTSTSTVYMELSSLRSEDTAVYYCAREAWTRGYFDYWGQGTLVTVSS VL: DIQMTQSPSSLSASVGDRVTITCQASRSVRNTVAWYQQKPGKAPKLLIYYASNRYTGVPSRFSGSGSGTDFTFTISSLQPEDIATYYCQQDYRSPFTFGQGTKLEIKR |
| 37.9 | 77.8 | 40.5 | – | no binding | monovalent anti-MerTK antibody MTK-16.2 (antibody, V domains shown) VH: QVQLVQSGSELKKPGASVKVSCKASGYTFTNHGMNWVRQAPGQGLEWMGWINTYTGEPTYADDFKGRFVFSLDTSVSTAYLQISSLKAEDTAVYYCARKGVTAARYFDYWGQGTLVTVSS VL: DIQMTQSPSSLSASVGDRVTITCRASQNVRTAVAWYQQKPGKAPKRLIYLASNRHTGVPSRFSGSGSGTEFTLTISNLQPEDFATYYCLQHWNYPLTFGGGTKLEIK |
| 0.436 | 51.9 | 42.5 | – | no binding | bivalent anti-MerTK antibody MTK-16.2 (full IgG) (antibody, V domains shown) VH: QVQLVQSGSELKKPGASVKVSCKASGYTFTNHGMNWVRQAPGQGLEWMGWINTYTGEPTYADDFKGRFVFSLDTSVSTAYLQISSLKAEDTAVYYCARKGVTAARYFDYWGQGTLVTVSS VL: DIQMTQSPSSLSASVGDRVTITCRASQNVRTAVAWYQQKPGKAPKRLIYLASNRHTGVPSRFSGSGSGTEFTLTISNLQPEDFATYYCLQHWNYPLTFGGGTKLEIKR |

The next lines start with the binder.

| Binder | Average Efferocytosis blocking IC50 [1] [nM] | Kd [2] [nM] | Kd [3] [nM] | Kd [4] [nM] | binding result [5] |
| --- | --- | --- | --- | --- | --- |
| bispecific anti-MerTK MTK-33.11:anti-PDL1 antibody (bispecific antibody, V domains shown) VH 1: QVQLVQSGAEVKKPGASVKVSCKASGYTFTSYWMHWVRQAPGQGLEWIGVIDPSDNYINYNQKFQGRVTMTRDTSTSTVYMELSSLRSEDTAVYYCAREAWTRGYFDYWGQGTLVTVSS VL 1: DIQMTQSPSSLSASVGDRVTITCQASRSVRNTVAWYQQKPGKAPKLLIYYASNRYTGVPSRFSGSGSGTDFTFTISSLQPEDIATYYCQQDYRSPFTFGQGTKLEIK VH 2: not shown VL 2: not shown | 4.42 | – | 3.25 | 40 | – |
| bispecific anti-MerTK MTK-16.2:anti-PDL1 antibody (bispecific antibody, V domains shown) VH 1: QVQLVQSGSELKKPGASVKVSCKASGYTFTNHGMNWVRQAPGQGLEWMGWINTYTGEPTYADDFKGRFVFSLDTSVSTAYLQISSLKAEDTAVYYCARKGVTAARYFDYWGQGTLVTVSS VL 1: DIQMTQSPSSLSASVGDRVTITCRASQNVRTAVAWYQQKPGKAPKRLIYLASNRHTGVPSRFSGSGSGTEFTLTISNLQPEDFATYYCLQHWNYPLTFGGGTKLEIK VH 2: not shown VL 2: not shown | – | – | 48.3 | – | no binding |
